{"source": "patent US20240317884A1", "about": "“METHOD FOR ALLOWING IMMUNE CELLS INFILTRATION IN TUMORS” (Alethia Biotherapeutics Inc., priority 2021, published 2024)", "key": {"tumor biopsies [1]": {"test_system": "tumor biopsies", "experiment": "Phase I: necrosis in tumor biopsies", "format": "in vivo, human", "conditions": "for Necrosis Pre-Treatment: baseline", "experimental": "Tumor biopsies were collected during the standard dose escalation to investigate the presence of AB-16B5 within the tumor. A total of 4 pre-treatment and 5 post-treatment tumor biopsies were suitable for analysis. These post-treatment tumor biopsies were collected following dosing on Cycle 2 Day 15 (between Cycle 2 Day 15 and Cycle 2 Day 18). The biopsy sites were liver (n=2), lymph node (n=2), bladder, skin and vulva.\nImmunohistochemistry studies were conducted on paired tumor biopsies to determine if the treatment with AB-16B5 was associated with a reacquisition of an epithelial phenotype."}, "[2]": {"experiment": "Phase I: plasma pharmacokinetics (non-compartmental analysis)", "format": "in vivo, human", "conditions": "for AUC0-t / Cmax / Thalf: mean; for AUC0-t / Cmax / Thalf / Tmax: plasma, first dose of cycle; for Tmax: median", "description": "Plasma PK parameters for AB-16B5 were derived from the concentration-time profiles following the first dose of Cycle 1 and the first dose of Cycle 2 using a non-compartmental analysis (NCA) with Phoenix WinNonlin."}, "[3]": {"test_system": "CA 15-3, CA-125, CA 19-9, CEA, LDH and PSA", "experiment": "Phase I: circulating tumor biomarkers", "format": "in vivo, human", "experimental": "Several well-established circulating biomarkers were evaluated to monitor the response to therapy. They included CA 15-3, CA-125, CA 19-9, CEA, LDH and PSA."}, "tumor biopsies [4]": {"test_system": "tumor biopsies", "experiment": "Human tumor biopsies of patients treated with AB-16B5 as single agent (H&E)", "format": "in vivo", "conditions": "after the second cycle", "experimental": "In parallel human tumor biopsies of patients treated with AB-16B5 as single agent were analyzed (FIGS. 2B-2E). Needle biopsies obtained from a patient with metastatic thyroid cancer and form a patient with inoperable metastatic gastric cancer were sectioned and stained with hematoxylin and eosin. An on-treatment biopsy from a patient with thyroid cancer metastasic to the lungs was obtained after the second cycle treatment with AB-16B5. […] Hemosiderin-laden macrophages were observed inside necrotic areas some reflecting red blood cell extravasation associated with necrosis (not shown). […] On display one finds."}}}
{"substance": "AB-16B5: humanized IgG2 monoclonal antibody targeting sCLU; light chain SEQ ID NO:11, heavy chain SEQ ID NO:12", "values": [{"measurement": "Necrosis Pre-Treatment", "setting": "tumor biopsies [1]; Subject 006, Breast, biopsy site Skin", "value": 0, "unit": "%"}, {"measurement": "Necrosis Post-Treatment", "setting": "tumor biopsies [1]; Subject 007, Gastric, biopsy site Gastric, 9.0 mg/kg", "value": 0, "unit": "%"}, {"measurement": "Necrosis Pre-Treatment", "setting": "tumor biopsies [1]; Subject 007, Gastric, biopsy site Gastric", "value": 0, "unit": "%"}, {"measurement": "Necrosis Post-Treatment", "setting": "tumor biopsies [1]; Subject 012, Breast, biopsy site Skin, 12.0 mg/kg", "value": 5, "unit": "%"}, {"measurement": "Necrosis Pre-Treatment", "setting": "tumor biopsies [1]; Subject 012, Breast, biopsy site Skin", "value": 0, "unit": "%"}, {"measurement": "Necrosis Post-Treatment", "setting": "tumor biopsies [1]; Subject 013, Prostate, biopsy site Bladder, 12.0 mg/kg", "value": 10, "unit": "%"}, {"measurement": "Necrosis Pre-Treatment", "setting": "tumor biopsies [1]; Subject 013, Prostate, biopsy site Bladder", "value": 0, "unit": "%"}, {"measurement": "AUC0-t", "setting": "[2]; Cycle 1, 1.5 mg/kg (N = 1)", "value": "230,321 ng*h/mL"}, {"measurement": "Cmax", "setting": "[2]; Cycle 1, 1.5 mg/kg (N = 1)", "value": "17,958 ng/mL"}, {"measurement": "Thalf", "setting": "[2]; Cycle 1, 1.5 mg/kg (N = 1)", "value": 9.35, "unit": "h"}, {"measurement": "Tmax", "setting": "[2]; Cycle 1, 1.5 mg/kg (N = 1)", "value": 1.17, "unit": "h"}, {"measurement": "AUC0-t", "setting": "[2]; Cycle 1, 3.0 mg/kg (N = 1)", "value": "645,602 ng*h/mL"}, {"measurement": "Cmax", "setting": "[2]; Cycle 1, 3.0 mg/kg (N = 1)", "value": "50,736 ng/mL"}, {"measurement": "Thalf", "setting": "[2]; Cycle 1, 3.0 mg/kg (N = 1)", "value": 7.39, "unit": "h"}, {"measurement": "Tmax", "setting": "[2]; Cycle 1, 3.0 mg/kg (N = 1)", "value": 1.08, "unit": "h"}, {"measurement": "AUC0-t", "setting": "[2]; Cycle 1, 6.0 mg/kg (N = 3)", "value": "1,357,773 ng*h/mL"}, {"measurement": "Cmax", "setting": "[2]; Cycle 1, 6.0 mg/kg (N = 3)", "value": "117,663 ng/mL"}, {"measurement": "Thalf", "setting": "[2]; Cycle 1, 6.0 mg/kg (N = 3)", "value": 6.99, "unit": "h"}, {"measurement": "Tmax", "setting": "[2]; Cycle 1, 6.0 mg/kg (N = 3)", "value": 1.00, "unit": "h"}, {"measurement": "AUC0-t", "setting": "[2]; Cycle 1, 9.0 mg/kg (N = 3)", "value": "2,083,091 ng*h/mL"}, {"measurement": "Cmax", "setting": "[2]; Cycle 1, 9.0 mg/kg (N = 3)", "value": "162,103 ng/mL"}, {"measurement": "Thalf", "setting": "[2]; Cycle 1, 9.0 mg/kg (N = 3)", "value": 10.78, "unit": "h"}, {"measurement": "Tmax", "setting": "[2]; Cycle 1, 9.0 mg/kg (N = 3)", "value": 2.00, "unit": "h"}, {"measurement": "AUC0-t", "setting": "[2]; Cycle 1, 12.0 mg/kg (N = 7)", "value": "4,045,786 ng*h/mL"}, {"measurement": "Cmax", "setting": "[2]; Cycle 1, 12.0 mg/kg (N = 7)", "value": "256,977 ng/mL"}, {"measurement": "Thalf", "setting": "[2]; Cycle 1, 12.0 mg/kg (N = 7)", "value": 11.99, "unit": "h"}, {"measurement": "Tmax", "setting": "[2]; Cycle 1, 12.0 mg/kg (N = 7)", "value": 1.12, "unit": "h"}, {"measurement": "AUC0-t", "setting": "[2]; Cycle 2, 1.5 mg/kg (N = 1)", "value": "188,584 ng*h/mL"}, {"measurement": "Cmax", "setting": "[2]; Cycle 2, 1.5 mg/kg (N = 1)", "value": "15,662 ng/mL"}, {"measurement": "Thalf", "setting": "[2]; Cycle 2, 1.5 mg/kg (N = 1)", "value": 7.97, "unit": "h"}, {"measurement": "Tmax", "setting": "[2]; Cycle 2, 1.5 mg/kg (N = 1)", "value": 1.00, "unit": "h"}, {"measurement": "AUC0-t", "setting": "[2]; Cycle 2, 3.0 mg/kg (N = 1)", "value": "688,934 ng*h/mL"}, {"measurement": "Cmax", "setting": "[2]; Cycle 2, 3.0 mg/kg (N = 1)", "value": "61,466 ng/mL"}, {"measurement": "Thalf", "setting": "[2]; Cycle 2, 3.0 mg/kg (N = 1)", "value": 6.82, "unit": "h"}, {"measurement": "Tmax", "setting": "[2]; Cycle 2, 3.0 mg/kg (N = 1)", "value": 1.05, "unit": "h"}, {"measurement": "AUC0-t", "setting": "[2]; Cycle 2, 6.0 mg/kg (N = 3)", "value": "1,351,156 ng*h/mL"}, {"measurement": "Cmax", "setting": "[2]; Cycle 2, 6.0 mg/kg (N = 3)", "value": "120,466 ng/mL"}, {"measurement": "Thalf", "setting": "[2]; Cycle 2, 6.0 mg/kg (N = 3)", "value": 7.70, "unit": "h"}, {"measurement": "Tmax", "setting": "[2]; Cycle 2, 6.0 mg/kg (N = 3)", "value": 1.03, "unit": "h"}, {"measurement": "AUC0-t", "setting": "[2]; Cycle 2, 9.0 mg/kg (N = 3)", "value": "2,459,988 ng*h/mL"}, {"measurement": "Cmax", "setting": "[2]; Cycle 2, 9.0 mg/kg (N = 3)", "value": "163,840 ng/mL"}, {"measurement": "Thalf", "setting": "[2]; Cycle 2, 9.0 mg/kg (N = 3)", "value": 13.75, "unit": "h"}, {"measurement": "Tmax", "setting": "[2]; Cycle 2, 9.0 mg/kg (N = 3)", "value": 1.08, "unit": "h"}, {"measurement": "AUC0-t", "setting": "[2]; Cycle 2, 12.0 mg/kg (N = 7)", "value": "4,147,243 ng*h/mL"}, {"measurement": "Cmax", "setting": "[2]; Cycle 2, 12.0 mg/kg (N = 7)", "value": "230,268 ng/mL"}, {"measurement": "Thalf", "setting": "[2]; Cycle 2, 12.0 mg/kg (N = 7)", "value": 21.04, "unit": "h"}, {"measurement": "Tmax", "setting": "[2]; Cycle 2, 12.0 mg/kg (N = 7)", "value": 1.04, "unit": "h"}, {"measurement": "increase of mean Cmax and AUC0-t (systemic exposure) with the dose", "setting": "[2]; dose range of 3.0 to 12.0 mg/kg, Cycle 1 and Cycle 2", "value": "dose proportional"}, {"measurement": "accumulation of AB-16B5 between Cycle 1 and Cycle 2", "setting": "[2]; weekly IV infusion", "value": "No significant accumulation"}, {"measurement": "tumor biomarker levels over time", "setting": "[3]; CA 15-3, CA-125, CA 19-9, CEA, LDH and PSA, correlated with disease progression", "value": "increased over time"}, {"measurement": "level of CEA", "setting": "[3]; in few patients", "value": "remained stable or decreased"}, {"measurement": "immune infiltrate, on-treatment biopsy", "setting": "tumor biopsies [4]; patient with inoperable metastatic gastric cancer, small fragments", "value": "infiltrated by a mix neutrophilic and mononucleated immune cells infiltrate"}, {"measurement": "immune infiltrate, on-treatment biopsy", "setting": "tumor biopsies [4]; patient with thyroid cancer metastatic to the lungs, edge of fragment", "value": "lymphoplasmacytic infiltrate was observed"}, {"measurement": "necrosis of tumor fragments, on-treatment biopsy", "setting": "tumor biopsies [4]; patient with thyroid cancer metastatic to the lungs, single agent", "value": "essentially all tumor fragments were necrotic"}]}
